The experiment addresses T1, dog iRhom2 full length wild type C-terminally tagged with 3 consecutive copies of the T7 epitope (dog, UniProt Q00M95 1-827).
T1 construct: whole, on cells; also called dog-iR2-FL-WT-T7; expressed by MEF-DKO-Dog-iR2-FL-WT-T7 cells
T1 sequence: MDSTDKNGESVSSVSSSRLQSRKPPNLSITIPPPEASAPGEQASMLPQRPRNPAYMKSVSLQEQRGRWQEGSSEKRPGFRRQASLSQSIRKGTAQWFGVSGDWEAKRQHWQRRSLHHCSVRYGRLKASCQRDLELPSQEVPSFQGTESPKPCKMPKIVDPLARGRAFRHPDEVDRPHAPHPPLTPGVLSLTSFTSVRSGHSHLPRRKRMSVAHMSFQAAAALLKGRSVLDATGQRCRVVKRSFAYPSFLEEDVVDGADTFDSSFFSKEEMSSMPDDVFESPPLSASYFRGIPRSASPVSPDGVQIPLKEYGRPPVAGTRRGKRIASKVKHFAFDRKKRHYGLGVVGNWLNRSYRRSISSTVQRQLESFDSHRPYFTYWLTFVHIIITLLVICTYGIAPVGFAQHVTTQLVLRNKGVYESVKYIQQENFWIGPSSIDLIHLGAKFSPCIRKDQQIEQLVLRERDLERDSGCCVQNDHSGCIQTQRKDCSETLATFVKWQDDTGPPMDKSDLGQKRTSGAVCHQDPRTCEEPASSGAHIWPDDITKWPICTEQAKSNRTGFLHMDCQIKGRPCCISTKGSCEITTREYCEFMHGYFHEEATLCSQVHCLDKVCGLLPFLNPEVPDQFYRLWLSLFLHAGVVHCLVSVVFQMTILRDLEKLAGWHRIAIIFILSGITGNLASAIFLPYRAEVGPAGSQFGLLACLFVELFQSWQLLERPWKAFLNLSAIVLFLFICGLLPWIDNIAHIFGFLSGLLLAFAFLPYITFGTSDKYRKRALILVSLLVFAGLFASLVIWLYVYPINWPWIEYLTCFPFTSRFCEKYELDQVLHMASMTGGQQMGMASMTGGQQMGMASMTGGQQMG
Kind of experiment: FACS on MEF-DKO-Dog-iR2-FL-WT-T7 cells. The protocol:
In brief, immortalized MEF-DKO-EV control cells, MEF-DKO-rhesus-iR2-FL-WT-T7 cells, MEF-DKO-cyno-iR2-FL-WT-T7 cells, MEF-DKO-dog-iR2-FL-WT-T7 cells and MEF-DKO-rabbit-iR2-FL-WT-T7 cells, as well as their respective iRhom1 counterparts, were harvested with 10 mM EDTA in PBS, washed and resuspended in FACS buffer (PBS, 3% FBS, 0.05% sodium azide), and seeded in Nunc U-bottom 96-well plates (Thermo Fisher Scientific, USA) at approximately 3×10⁵ cells per well. To pellet cells and remove supernatants, the plates were centrifuged at 1,500 rpm and 4° C. for 3 minutes. For primary staining, cells were resuspended in 100 μl per well of either FACS buffer alone (controls), mouse monoclonal anti-T7 IgG (Merck Millipore, USA) at 3 μg/ml FACS buffer or the antibodies of the invention also at 3 μg/ml FACS buffer and incubated on ice for 1 hour. Afterwards, plates were centrifuged at 1,500 rpm and 4° C. for 3 minutes and washed twice with 200 μl per well of FACS buffer. For secondary staining of previous anti T7 staining, cells were spun down and resuspended in 100 μl per well of PE-conjugated goat anti-mouse IgG F(ab′)2 detection fragment (Dianova, Germany) diluted 1:100 in FACS buffer. […] Finally, cells were resuspended in 150 μl per well of FACS buffer and analyzed using a BD Accuri™ C6 Plus flow cytometer (Becton Dickinson, Germany).

B1: humanized antibody 16-B-03 (antibody, V domains shown)
VH: QVTLRESGPALVKPTQTLTLTCTFSGFSLSTFALGVGWIRQPPGKALEWLAHIWWDDDKYYNPALKSRLTISKDTSKNQVVLTITNMDPVDTATYYCARITTYYYGMDYWGQGTLVTVSS
VL: EIVMTQSPDFQSVTPKEKVTITCRASQSIGNHLHWYQQKPDASPKLLIKYASQSISGVPSRFSGSGSGTDFTLTINSLEAEDAATYFCQQSYQWPLTFGQGTKLEIK
notes: Tested as whole humanized antibody produced in CHO cells and detected with anti-human IgG; the general methods speak of human IgG1/Kappa; also called clone 16-B-03
Regarding B1, the binding result was “binds”.

The record behind these values is patent publication US20240166767A1 (SCIRHOM, published 2024).
